Tests used:
[1] = target: T1, human CTLA-4 (Y201V), full length, on transfected cells (human, UniProt P16410 36-223); experiment: FACS, human CTLA-4 expressing cells
T1 construct: whole, on cells; also called hCTLA-4; HEK293-hCTLA-4 (Y201V)
T1 sequence (looked up): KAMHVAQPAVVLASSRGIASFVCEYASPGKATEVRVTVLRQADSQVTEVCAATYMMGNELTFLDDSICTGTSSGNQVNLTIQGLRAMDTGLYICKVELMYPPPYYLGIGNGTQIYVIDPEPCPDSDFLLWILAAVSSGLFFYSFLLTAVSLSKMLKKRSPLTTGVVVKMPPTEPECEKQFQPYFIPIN

[2] = target: T2, monkey CTLA-4, full length, on transfected HEK293 cells (monkey); experiment: FACS, monkey CTLA-4 expressing cells
T2 construct: whole, on cells; also called cCTLA-4; HEK293-cCTLA-4
Description: The pIRES plasmid with the monkey-derived CTLA-4 full-length gene was transfected into the HEK293 cell line to construct a HEK293 stable cell line containing monkey CTLA-4 (herein referred to as HEK293-cCTLA-4 stable cell line), wherein the database accession number of the monkey CTLA-4 nucleotide sequence is XM_005574014.1. The HEK293-hCTLA-4 stable cell line and HEK293-cCTLA-4 stable cell line were expanded in a T-75 cell culture flask to a 90% confluence. The medium was aspirated, and the cells were washed with HBSS buffer (Hanks Balanced Salt Solution, purchased from Invitrogen) twice, then treated with an enzyme-free cell dissociation fluid (Versene solution, purchased from Life technology) and the cells were collected. The cells were washed with HBSS buffer twice. After counted, the cells were diluted with HBSS buffer to 2×10⁶ cells per ml, added with 1% goat serum blocking solution, wherein the percentage was the mass percantage. Cells were incubated on ice for 30 minutes, then washed twice with HBSS buffer by centrifugation. The collected cells were suspended in the FACS buffer (HBSS containing 1% BSA, wherein the percentage was the mass percantage) to 2×10⁶ cells/ml, added as 100 microliters per well to a 96-well FACS reaction plate, added with 100 microliters per well of the purified CTLA-4 antibody sample to be tested, incubated on ice for 2 hours. The plate was washed twice with the FACS buffer by centrifugation, added with 100 microliters of fluorescent (Alexa 488)-labeled secondary antibodies (purchased from Invitrogen) per well, and incubated on ice for 1 hour. The plate was washed 3 times with FACS buffer by centrifugation, added with 100 μl fixative solution [4% (v/v) Paraformaldehyde] per well to suspend the cells. 10 minutes later, it was washed 2 times with FACS buffer by centrifugation. The cells were suspended with 100 microliters of FACS buffer, FACS (FACS Calibur, purchased from BD) was used for detection and the results were analyzed.

[3] = target: T3, CTLA-4-hFc (immunogen A; hFc-labeled CTLA-4 extracellular domain protein) (human, UniProt P16410 36-161); experiment: blocking assay, CTLA-4 protein, competitor B7.1
T3 construct: range 36-161; Made in HEK293 cells, purified on protein A; also called CLTA-4-hFc; CTLA-4 protein; not shown: human IgG Fc fragment (hFc) of the pCpC vector
T3 sequence (looked up): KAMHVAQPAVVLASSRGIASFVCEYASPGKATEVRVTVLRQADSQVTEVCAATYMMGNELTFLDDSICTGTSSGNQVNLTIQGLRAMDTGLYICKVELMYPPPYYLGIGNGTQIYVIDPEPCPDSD
Experimental: (§1) CTLA-4 extracellular domain protein (CTLA-4-hFc) was diluted with PBS to a final concentration of 1.0 μg/mL, and then added to a 96-well ELISA plate as 100 μl per well. The plate was covered with a plastic film and incubated overnight at 4° C. The plate was washed twice with plate washing solution [PBS containing 0.01% (v/v) Tween 20] on the next day, and added with blocking solution [PBS containing 0.01% (v/v) Tween 20 and 1% (w/w) BSA] and blocked at room temperature for 2 hours. […] After 2 hours, the plate was washed 3 times with a plate washing solution [PBS containing 0.01% (v/v) Tween 20]. HRP (horseradish peroxidase) labeled avidin diluent (purchased from Sigma) was added 100 microliters per well, and after the plate was incubated for 2 hours at 37° C., it was washed with plate washing solution [PBS containing 0.01% (v/v) Tween 20] for 3 times. […] TMB substrate was added to each well. After incubated at room temperature for 30 minutes, the plate was added with […] stop solution (1.0N HCl) to each well. An ELISA plate reader (SpectraMax 384plus, Molecular Device) was used to read the A450 nm value.

[4] = target: T3, CTLA-4-hFc (immunogen A; hFc-labeled …); experiment: blocking assay, CTLA-4 protein, competitor B7.2
Experimental: as §1

[5] = target: T3, CTLA-4-hFc (immunogen A; hFc-labeled …); experiment: receptor-ligand blocking assay: CTLA-4 protein, antibody titrated, blocked ligand B7.1, inhibition (%)
Experimental: as §1

B1: 92C8B6 fully human CTLA-4 antibody (human IgG1, kappa) (antibody, V domains shown)
VH: QVQLVESGGGVVQPGRSLRLSCAASGFTFSNFGMHWVRQAPGKGLEWVAVIWYDGSNKYYADSVKGRFTISRDNSKNTLFLQMNGLRAEDTAVYYCAKGGILMAGTLDYWGQGTLVTVSS
VL: DIQMTQSPSSLSASVGDRVTITCRASQSVSTYLNWYQQKPGKAPKLLIYAASSFQSGVPSRFSGSGSGTDFTLTISSLQPEDFATYFCQQSYSTPFTFGPGTKVDIK
notes: also called mAb42; mAb042
In the case of B1, the “MFI at 0.000128 nM” value [1] is reported as 3, the “MFI at 0.0128 nM” value [1] is reported as 23 and the “MFI at 0.064 nM” value [1] is reported as 67. The “MFI at 0.32 nM” value [1] was 203, the “MFI at 1.6 nM” value [1] was 509 and the “MFI at 8 nM” value [1] was 827. The “MFI at 40 nM” value [1] was 1040, the “MFI at 200 nM” value [1] was 1060 and the “MFI at 0.000128 nM” value [2] was 2. The “MFI at 0.0128 nM” value [2] was 22, the “MFI at 0.064 nM” value [2] was 68 and the “MFI at 0.32 nM” value [2] was 208. The “MFI at 1.6 nM” value [2] was 465, the “MFI at 8 nM” value [2] was 722 and the “MFI at 40 nM” value [2] was 800. The “MFI at 200 nM” value [2] was 711, the “% Block at 0.000128 nM” value [3] was 0% and the “% Block at 0.0128 nM” value [3] was 5.3%. The “% Block at 0.064 nM” value [3] was 21.4%, the “% Block at 0.32 nM” value [3] was 65.1% and the “% Block at 1.6 nM” value [3] was 93.7%. The “% Block at 8 nM” value [3] was 98.1%, the “% Block at 40 nM” value [3] was 98.9% and the “% Block at 200 nM” value [3] was 99.3%. The “% Block at 0.000128 nM” value [4] was 0%, the “% Block at 0.0128 nM” value [4] was 25% and the “% Block at 0.064 nM” value [4] was 36.7%. The “% Block at 0.32 nM” value [4] was 78.5%, the “% Block at 1.6 nM” value [4] was 98.7% and the “% Block at 8 nM” value [4] was 99.2%. For the same binder, the “% Block at 40 nM” value [4] was 99.2%, the “% Block at 200 nM” value [4] was 99.2% and the “IC50 (read off the curve)” value [5] was about 2 nM.

— patent US20210324080A1 (JIANGSU HUAIYU PHARMACEUTICAL, published 2021)
